We go through one molecule from patent publication US20060257880A1, “Gastric and prostate cancer associated antigens” (THE NOTTINGHAM TRENT UNIVERSITY, priority 2003, published 2006).

Test [1] concerns prostate cancer patients' sera. Nature of the test: Modified SEREX immunoscreening of T21 clone against prostate cancer patients' sera. The format is binding, human. Also noted: key to Sera reactivity: +: sera reactivity observed; −: no sera reactivity observed. An excerpt: (§1) The SEREX approach allows an unbiased search for an antibody response and the direct molecular definition of immunogenic tumour proteins based on their reactivity with allogeneic patient sera. In this approach, a prokaryotically expressed cDNA library constructed from normal human testes was immunoscreened with absorbed and diluted patients' sera for the detection of tumour antigens that have elicited a high-titer immunoglobulin (Ig) G humoral response. Such a humoral response implies T-cell recognition of the detected antigens by helper T cells. […] The SEREX approach can then be modified and used to determine the reactivity of identified antigens with panels of human sera including prostate cancer patient sera and normal donor sera.
(§2) The reactivity of promising positive clones against patient and normal donor serum was determined by immunoscreening the clones against and allogeneic panel of 10 prostate cancer patients' sera and 10 healthy donor patients' sera. The methodology used was the same as the SEREX methodology (described above) with the following modifications: The positive clone (T21) and a negative clone (blue phage) were plated out on a small LB agar plate at a ratio of 1:2 to give a titre of approximately 600 pfu/plate. The steps for detection of false positives, subcloning and retesting were not necessary. Following expression overnight, plaque expression and transferral of the plaques to nitrocellulose membranes, the nitrocellulose membranes were incubated with the individual serum and colour developed as described previously. The results would then be recorded simply as being positive (plaques visible) or negative (no plaques visible).
(§3) Immune recognition of identified gene products in prostate cancer patients. To assess the frequency of antibody responses against T21 in sera from normal individuals and prostate cancer patients, 10 prostate cancer patient sera and 10 normal adult sera were screened using a modified immunoscreening procedure.

In test [2] the test system is normal individual sera. Nature of the test: Modified SEREX immunoscreening of T21 clone against normal individual sera. It is filed as binding, human. More on the design: key to Sera reactivity: +: sera reactivity observed; −: no sera reactivity observed.
From the text: as §1, §2, §3

B1: T21: SEREX-identified cancer-testis antigen clone; cDNA encodes a putative 535 amino acid protein (SEQ. ID. 3) (protein, listed as Homo sapiens)
chain: MSEAQSKNEIIAQEFLIKEAECRNADIELEHHRSQAEQNEFLSRELIEKERDLERSRTVIAKFQNKLKELVEENKQLEEGMKEILQAIKEMQKDPDVKGGETSLIIPSLERLVNAIESKNAEGIFDASLHLKAQVDQLTGRNEELRQELRESRKEAINYSQQLAKANLKIDHLEKETSLLRQSEGSNVVFKGIDLPDGIAPSSASIINSQNEYLIHLLQELENKEKKLKNLEDSLEDYNRKFAVIRHQQSLLYKEYLSEKETWKTESKTIKEEKRKLEDQVQQDAIKVKEYNNLLNALQMDSDEMKKILAENSRKITVLQVNEKSLIRQYTTLVELERQLRKENEKQKNELLSMEAEVCEKIGCLQRFKEMAIFKIAALQKVVDNSVSLSELELANKQYNELTAKYRDILQKDNMLVQRTSNLEHLECENISLKEQVESINKELEITKEKLHTIEQAWEQETKLGNESSMDKAKKSITNSDIVSISKKITMLEMKELNERQRAEHCQKMYEHLRTSLKQMEERNFELETKFAEV
As for B1, the “Antibody response against T21 in sera (in words)” value in test [1] (10 prostate cancer patient sera) is “reacted exclusively with allogeneic sera obtained from prostate cancer patients”; in test [2] (10 normal adult sera), “not with sera from healthy individuals”. Further, the “Sera reactivity, reactive sera / sera tested” value is 4/10 in test [1] (panel of 10 prostate cancer patients sera) and 0/10 in test [2] (panel of 10 normal donor sera). In addition, the Sera reactivity entry in test [1] (prostate cancer patient serum 27) is reported as “+”; in test [1] (prostate cancer patient serum 29) it was “−”; in test [1] (prostate cancer patient serum 32) it was “−”; in test [1] (prostate cancer patient serum 33) it was “−”; in test [1] (prostate cancer patient serum 34), “+”; in test [1] (prostate cancer patient serum 36), “−”. In addition, the Sera reactivity entry in test [1] (prostate cancer patient serum 37) is recorded as “−”; in test [1] (prostate cancer patient serum 38), “+”; in test [1] (prostate cancer patient serum 39), “+”; in test [1] (prostate cancer patient serum 48), “−”; in test [2] (normal individual serum 1), “−”; in test [2] (normal individual serum 2), “−”. Besides, the Sera reactivity entry in test [2] (normal individual serum 3), in test [2] (normal individual serum 5), in test [2] (normal individual serum 12), in test [2] (normal individual serum 13), in test [2] (normal individual serum 14) and in test [2] (normal individual serum 19) was “−” each time. In addition, the Sera reactivity entry in test [2] (normal individual serum 20) and in test [2] (normal individual serum 21) was “−” throughout.
